# Assay results reported in publication PMC8724117.
# Molecular target: dual anticoagulant and antiplatelet (APAC) agent (human) (UniProt P02768)
# Assay: atomic force microscopy (tapping mode AFM); APAC alone (1:1000 and 1:20,000 dilution of stock) in PBS with 20 mM MgCl2, drop-casted on mica, imaged in air; volume distribution of 340 molecules evaluated with Gwyddion
substance,measurement,value
dual anticoagulant and antiplatelet (APAC) agent (from UniProt P02768 25-609),stoichiometry N,3
